# In patent US20160177307:
# pKd: −log10 of the molar value.
# Biological target: PDGF-BB (platelet-derived growth factor BB) (Homo sapiens) (UniProt P01127)
# Test: filter
# [1] = all Z are BndU, rest DNA, SB18T, 37 C
# [2] = all P are NapdU, rest DNA, SB18T, 37 C
# Sequence of PDGF-BB (platelet-derived growth factor BB) (Homo sapiens) (P01127 82-190): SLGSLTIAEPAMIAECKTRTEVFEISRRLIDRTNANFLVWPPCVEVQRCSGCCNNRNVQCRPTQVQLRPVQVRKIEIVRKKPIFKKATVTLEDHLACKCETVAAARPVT
substance,measurement,setting,value
TTACGTTACACGCGTTTATAGCG [4149-8_305],pKd,"Bn-dU, 2'-OMe Bn-U1, Heg5, 2'-OMe A3, A11, A21, G24",< 8.00
TTACGTTACCGCGTTTATAGCG [4149-8_391],pKd,"BndU, PS 9,15, 2'-OMe, Heg 5, C3 11",10.92
TTACGACTACGTTACACGCGTTTATGCG [4149-8_89],pKd,"Bn-dU, C3 at 26",< 8.00
CGACAGCATGTATGCACATCT [5169-4_43],pKd,"NapdU at P, 2'-OMe 3",9.80
CGACAGCATGTATGCACATCT [5169-4_50],pKd,"NapdU at P, 2'-OMe 11",10.33
CGACAGCATGTATGCACATCT [5169-4_51],pKd,"NapdU at P, 2'-OMe 13",9.49
CGACAGCATGTATGCACATCT [5169-4_57],pKd,"NapdU at 9,11,13,21, dT at 19, dT substitution",6.92
CGACAGCATGTATGCACATCT [5169-4_35],pKd,"NapdU at P, 2'-OMe 7",10.80
CTGCCTCGACAGCATGTATGCACATCTAGAGGCTACCCAGTGAATGA [5169-4_7],pKd,NapdU at P,10.85
CGACAGCATGTATGCACATCT [5169-4_55],pKd,"NapdU at 9,13,19,21, dT at 11, dT substitution",8.11
TTACGTTACCGCGTTTATAGCG [4149-8_433],pKd,"as 4149-8_379, NapdU 16, PS 9,15",10.18
CGTTACACGCGTTTATAGCGTCAACCCGAGTGAACA [4149-8_17],pKd,Bn-dU,< 8.00
CGACAGCATGTATGCACATCT [5169-4_156],pKd,"as 5169-4_146, PS 11, 3' inverted dT",11.11
GACAGCATGTATGCACATCTAGAGGCTACCCAGTGAA [5169-4_13],pKd,NapdU at P,10.57
CGACAGCATGTATGCACATCT [5169-4_92],pKd,"NapdU at P, 2'-OMe 1,7,15,16,18,20,21",11.28
CGACAGCATGTATGCACATCT [5169-4_127],pKd,"NapdU at P, 2'-OMe 16,17,18",11.00
TTACGACTACGTTACACGCGTTTAAGCG [4149-8_88],pKd,"Bn-dU, C3 at 25",< 8.00
CGACAGCATGTATGCACATCT [5169-4_83],pKd,"NapdU at P, 2'-OMe 1,6,7,14,15,16,18,20,21",11.68
CGACAGCATGTATGCACATCT [5169-4_124],pKd,"NapdU at P, 2'-OMe 5,20,21",9.22
TTACGACTACGTTACACGCGTTATAGCG [4149-8_86],pKd,"Bn-dU, C3 at 23",< 8.00
TTACGTTACCGCGTTTATAGCG [4149-8_455],pKd,"BndU, NapdU 16, 2'-OMe 3,7,12,13,18,19,21,24, PS 8,9,15,16,17, Heg 5, C3 11",10.77
CGACTACGTTACACGCGTTTATAGCGTCAACCCGAGTGAACA [4149-8_14],pKd,[1],7.89
TTACGTTACCGCGTTTATAGCG [4149-8_435],pKd,"as 4149-8_379, BndU 2, NapdU 16, PS 9,15,17",10.80
TTACGTTACACGCGTTTATAGCGNT [4149-8_341],pKd,"4149-8_260 3'-3' dimer, 2 Heg, doubler",10.57
CTGCCTCGACAGCATGTATGCACATCTAGAGGCTACCC [5169-4_10],pKd,NapdU at P,9.20
CGACAGCATGTATGCACATCT [5169-4_45],pKd,"2'-OMe A8, NapdU at 9,11,13,19,21, 2'-OMe substitution",9.03
CGACAGCATGTATGCACATCT [5169-4_176],pKd,"as 5169-4_146, PS 17, 3' inverted dT",10.85
TTACACGCGTTTATAGCGTCAACCCGAGTGAACA [4149-8_18],pKd,[1],7.89
CTGCCTCGACAGCATGTATGCACATCTAGAGGCTACCCAGTGAATGAGGA [5169-4_3],pKd,[2],10.54
TACGACTACGTTACACGCGTTTATAGCGTCAACCCGAGTGAACA [4149-8_13],pKd,[1],9.10
CGACAGCATGTATGCACATCTAGAGGCTACCCAGTGAATGAGGA [5169-4_5],pKd,NapdU at P,10.51
CGACAGCATGTATGCACATCT [5169-4_52],pKd,"NapdU at P, 2'-OMe 19",9.51
TTACGTTACCGCGTTTATAGCG [4149-8_419],pKd,"as 4149-8_379, 2'-OMe 15, NapdU 16",8.89
TTACGACTACTTACACGCGTTTATAGCG [4149-8_74],pKd,"Bn-dU, C3 at 11",< 8.00
TTACGACTACGTTACACGCGTTTATAGCG [4149-8_109],pKd,"Bn-dU, 2'-OMe U22",< 8.00
CGACAGCATGTATGCACATCT [5169-4_123],pKd,"NapdU at P, 2'-OMe 1,20,21",10.52
ACAGCATGTATGCACATCTAGAGGCTACCCAGTGAA [5169-4_14],pKd,[2],9.77
CGACAGCATGTATGCACATCTAG [5169-4_24],pKd,NapdU at P,10.68
CGACAGCATGTATGCACATCT [5169-4_82],pKd,"NapdU at 9,11,13,19, 2'-OMe at G6,C7,G14,A16,A18,C20 and 2'-OMe-NapU21, SB18T, 37 C",11.80
TTACGACTACGTTACACGCGTTTATACG [4149-8_90],pKd,"Bn-dU, C3 at 27",< 8.00
TTACGTTACACGCGTTTATAGCG [4149-8_350],pKd,"Bn-dU, Pe-dU17, 2'-F C10, Heg, 2'-OMe",< 8.00
GACAGCATGTATGCACATCTAGAG [5169-4_32],pKd,NapdU at P,10.28
CGACAGCATGTATGCACATCTA [5169-4_25],pKd,NapdU at P,10.70
GACAGCATGTATGCACATCT [5169-4_59],pKd,"C3 spacer at 1, NapdU at 9,11,13,19,21, C3 spacer walk",10.28
GACAGCATGTATGCACATCTAGA [5169-4_27],pKd,NapdU at P,10.21
CGACAGCATGTATGCACATCT [5169-4_106],pKd,"NapdU at P, 2'-OMe 1,18,20",10.80
CGACAGCATGTATGCACATCT [5169-4_159],pKd,"as 5169-4_146, PS 19, 3' inverted dT",10.82
CTTACGACTACGTTACACGCGTTTATAGC [4149-8_31],pKd,[1],9.52
CGACAGCATGTATGCACATCT [5169-4_53],pKd,"NapdU at P, 2'-OMe 21",10.66
TTACGTTACACGCGTTTATAGCGNT [4149-8_342],pKd,"4149-8_260 3'-3' dimer, 3 Heg, doubler",10.74
CTGCCTCGACAGCATGTATGCACATCTAGAGGCTA [5169-4_11],pKd,NapdU at P,9.22
TTACGACTACGTTACACGCGTTTATAGCG [4149-8_38],pKd,"BndU at 1,2,8,12,13,21,22,23,25, rest DNA, SB18T, 37 C, text p191 gives 20 pM, Table 1a 30 pM",10.30
CGACAGCATGTATGCACATCT [5169-4_39],pKd,"NapdU at P, 2'-OMe 2",10.24
TTACGACTACGTTACACGCGTTTAT [4149-8_42],pKd,Bn-dU,< 8.00
TTCGACTACGTTACACGCGTTTATAGCG [4149-8_66],pKd,"Bn-dU, C3 at 3",< 8.00
CGACAGCTGTATGCACATCT [5169-4_66],pKd,"C3 spacer at 8, NapdU at 9,11,13,19,21, C3 spacer walk",8.07
TACGTTACACGCGTTTATAGCGTCAACCCGAGTGAACA [4149-8_16],pKd,[1],7.66
CTTACGACTACGTTACACGCGTTTATAG [4149-8_32],pKd,[1],8.22
CGACAGCATGTATGCACATCT [5169-4_173],pKd,"as 5169-4_146, PS 4, 3' inverted dT",11.04
TTACGTTACCGCGTTTATAGCG [4149-8_421],pKd,"as 4149-8_379, 2'-OMe 13",10.72
CGACAGCATGTATGCACATCT [5169-4_132],pKd,"NapdU at P, 2'-OMe 1,2,3",9.38
CTGCCTCGACAGCATGTATGCACATCTAGAGGCTACCCAGT [5169-4_9],pKd,[2],9.14
CTTACGACTACGTTACACGCGTTTATAGCG [4149-8_30],pKd,[1],10.15
TTACGTTACACGCGTTTATAGCG [4149-8_253],pKd,"Trp, Ib, NE, Th, Pe, MBn dU, Heg, 2'-OMe",< 8.00
TTACGTTACACGCGTTTATAGCG [4149-8_351],pKd,"Bn-dU, Pe-dU17, 2'-F C14, Heg, 2'-OMe",< 8.00
TTACGACTACGTTACACGCGTTATAGCG [4149-8_85],pKd,"Bn-dU, C3 at 22",< 8.00
TTACGTTACCGCGTTTATAGCG [4149-8_425],pKd,"as 4149-8_379, 2'-OMe 9",9.04
TTACGACTACGTACACGCGTTTATAGCG [4149-8_75],pKd,"Bn-dU, C3 at 12",< 8.00
CGACAGCATGTATGCACATCT [5169-4_115],pKd,"NapdU at P, 2'-OMe 4,7,21",10.62
CGACAGCATGTATGCACATCT [5169-4_47],pKd,"NapdU at P, 2'-OMe 16",10.80
CGACAGCATGTATGCACATCT [5169-4_182],pKd,"as 5169-4_146 plus PS 3' of 9,10,11,12, 3'-idT",10.41
CGACAGCATGTATGCACATCT [5169-4_131],pKd,"NapdU at P, 2'-OMe 4,5,6",9.19
TTACGTTACACGCGTTTATAGCG [4149-8_278],pKd,"Bn-dU, Tyr-dU1, FBn-dU7, Ib-dU8, 2Nap-dU16, Pe-dU17, Th-dU18, Heg5, 2'-OMe A3, A11, A21, G24",< 8.00
CGACAGCATGTATGCACATCT [5169-4_152],pKd,"as 5169-4_146, PS 5, 3' inverted dT",10.82
CGACAGCATGTATGCACATCT [5169-4_177],pKd,"as 5169-4_146, PS 20, 3' inverted dT",11.14
CGACAGCATGTATGCACATCT [5169-4_179],pKd,"as 5169-4_146, PS 14, 3' inverted dT",11.11
CGACAGCATGTATGCACATCT [5169-4_130],pKd,"NapdU at P, 2'-OMe 7,8,9",8.35
CGACAGCATGTATGCACATCT [5169-4_150],pKd,"as 5169-4_146, PS 2, 3' inverted dT",10.89
CGACAGATGTATGCACATCT [5169-4_65],pKd,"NapdU at P, C3 spacer at 7",10.13
GACAGCATGTATGCACATCTA [5169-4_29],pKd,NapdU at P,10.21
TTACGTTACCGCGTTTATAGCG [4149-8_436],pKd,"as 4149-8_379, BndU 2, PS 9,15,17",11.11
CGACAGCATGTATGCACATCT [5169-4_172],pKd,"as 5169-4_146, PS 1, 3' inverted dT",10.89
E10030 (Fovista),pKd,comparator,10.33
TTACGTTACCGCGTTTATAGCG [4149-8_379],pKd,"BndU at 1,8,16,17,20, MBndU at 2, Heg at 5, C3 at 11, 2'-OMe at A3,C12,A19,A21,G24 and 2'-OMe-BnU at 7,18, Table 30 gives 1.6E-11, Table 31 5.2E-11",10.70
CGACAGCATGTATGCACATCT [5169-4_180],pKd,"as 5169-4_146, PS 16, 3' inverted dT",10.70
CTGCCTCGACAGCATGTATGCACATCTAGAGGCTACCCAGTGAA [5169-4_8],pKd,NapdU at P,10.44
CGACAGCATGTATGCACATCT [5169-4_158],pKd,"as 5169-4_146, PS 13, 3' inverted dT",10.72
CGACAGCATGTATGCACATCT [5169-4_46],pKd,"NapdU at P, 2'-OMe 12",10.03
CGACAGCATGTATGCACATCT [5169-4_125],pKd,"NapdU at P, 2'-OMe 1,5,20",9.00
